PMC6771557 (Diabetes, Obesity & Metabolism, 2019)

Experiments:
[1] = Safety: adverse events and hypoglycaemia; type: in vivo, Japanese people with type 2 diabetes mellitus; settings: n=20
Experimental: Patient safety was monitored from adverse events (AEs) spontaneously reported by a patient or noted by an investigator, including hypoglycemic events. All AEs, regardless of seriousness or relationship to the study drug, were recorded in each patient’s records from the time the informed consent form was signed. Treatment emergent AEs (TEAEs) were defined as AEs that occurred or worsened or became serious during the treatment phase.
Evaluation of safety was based on the review of individual values and descriptive statistics. All safety analyses were performed in the safety population. Individual values were flagged for potentially clinically significant abnormalities (PCSAs) if appropriate.

[2] = tested on: postprandial plasma glucose (PPG); experiment: Postprandial plasma glucose after standardized breakfast, single s.c. dose, phase I crossover study; type: in vivo, Japanese people with type 2 diabetes mellitus; settings: insulin glargine 5 U single s.c. dose; at 2 hours post-dose
Experimental: This was a phase I, single‐centre, randomized, open‐label, placebo‐controlled, four‐sequence, four‐period, four‐treatment crossover, single‐dose study.
Inclusion and exclusion criteria are provided in Appendix S1. […] There was a washout period of 7 to 14 days between dose administrations.
The secondary endpoints are described in Appendix S1.
The PD analyses were performed using the evaluable PD population. PPG–AUC0–2h was analysed using a linear mixed‐effects model with treatment group, sequence and treatment period as fixed effects, patient‐within‐sequence as a random effect, and baseline value as a covariate. The least squares (LS) mean differences were calculated between iGlarLixi groups and placebo, between the two iGlarLixi groups, and between iGlarLixi 5 U/5 μg and insulin glargine. The corresponding 95% confidence intervals and P values were calculated within the linear mixed‐effect model framework. P values < 0.05 were taken to indicate statistical significance. No adjustment for multiplicity was performed. […]
Secondary endpoints for PD included maximum postprandial plasma glucose (PPG) (PPG-Cmax), time of PPG-Cmax (PPG-tmax) and PPG-AUC0-5. In addition, serum insulin, serum C-peptide, and plasma glucagon concentrations were analyzed as secondary endpoints, and appropriate PD parameters such as AUCs were evaluated as applicable. […]

## insulin glargine
[1]; insulin glargine 5U single s.c. dose, up to 24 hours after injection
  Patients with any TEAE: 0 n
[1]; insulin glargine 5U
  Patients with any TEAE leading to permanent treatment discontinuation: 0 n
  Patients with any severe TEAE: 0 n
  Patients with any treatment emergent SAE: 0 n
[2]
  time of peak of mean plasma glucose concentration after breakfast start: approximately 1 hour
